Experimental data: PMC8575367
Read-outs that look alike come from different tables or passages of the source.

Experiments:
Experiment in all cases: fluorescence anisotropy
[1] = molecular target: T1, CPSF30-5F (five CCCH domains) (Bos taurus, UniProt O19137 33-170)
[2] = molecular target: T1, CPSF30-5F (five CCCH domains); remark: listed apart in the source
[3] = molecular target: T1, CPSF30-5F (five CCCH domains); remark: listed apart in the source
[4] = molecular target: CPSF30-FL (five CCCH + CCHC zinc knuckle) (Bos taurus, UniProt O19137 1-243)
Chain of CPSF30-FL (five CCCH + CCHC zinc knuckle) (O19137 whole entry, the tested form may be a part): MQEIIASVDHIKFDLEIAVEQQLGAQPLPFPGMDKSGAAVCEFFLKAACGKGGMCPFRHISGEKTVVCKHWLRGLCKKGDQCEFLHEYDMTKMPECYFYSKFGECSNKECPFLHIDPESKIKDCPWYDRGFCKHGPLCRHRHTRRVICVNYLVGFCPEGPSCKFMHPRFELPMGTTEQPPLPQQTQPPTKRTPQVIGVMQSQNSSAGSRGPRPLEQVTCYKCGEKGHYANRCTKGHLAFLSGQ

[5] = molecular target: T1, CPSF30-5F (five CCCH domains); remark: listed apart in the source
[6] = molecular target: T1, CPSF30-5F (five CCCH domains); remark: listed apart in the source
[7] = molecular target: T1, CPSF30-5F (five CCCH domains); remark: listed apart in the source
[8] = molecular target: T1, CPSF30-5F (five CCCH domains); remark: listed apart in the source
[9] = molecular target: T1, CPSF30-5F (five CCCH domains); remark: listed apart in the source
[10] = molecular target: T1, CPSF30-5F (five CCCH domains); remark: listed apart in the source
[11] = molecular target: T1, CPSF30-5F (five CCCH domains); remark: listed apart in the source

T1 sequence (O19137 33-170): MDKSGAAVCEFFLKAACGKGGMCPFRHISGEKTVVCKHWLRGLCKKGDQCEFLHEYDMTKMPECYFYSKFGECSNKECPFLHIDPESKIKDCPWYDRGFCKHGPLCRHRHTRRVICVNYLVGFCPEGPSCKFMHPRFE

UCUCACUUUAAUAUUAAGAAUCAUGCUUAU (ssRNA) [FABRY]
binding result [1]: no binding

UCUCACUUUAAUAGUAAAAAUCAUGCUUAU (ssRNA) [P2AtoG]
apparent K (half saturation) [2]: 376 ± 12 nM

UUAUUAUUUAUUUAUUUA (ssRNA) [ARE-18]
apparent K (half saturation) [3]: 671 ± 49 nM

CACUUUAAUAAUAAAAAUCAUGCU (ssRNA) [α-syn24 (labeled)]
binding result [4]: binds

UUUAUUAUUUAUUUAUUUAG (ssRNA) [ARE-20]
apparent K (half saturation) [3]: 499 ± 37 nM

UUUAUUAUUUAUUUAUUAUUUAUUUAUUUA (ssRNA) [ARE-30]
apparent K (half saturation) [5]: 163 ± 10 nM

UCUCACUUUAAUAAUAAGAAUCAUGCUUAU (ssRNA) [ATHA (α-thalassemia)]
apparent K (half saturation) [6]: 135 ± 6.3 nM

UCUCACUUUAAUAUUAAAAAUCAUGCUUAU (ssRNA) [P2AtoU]
apparent K (half saturation) [7]: 207 ± 0.6 nM

UCUCACUUUAAUAACAAAAAUCAUGCUUAU (ssRNA) [BTHA (β-thalassemia)]
apparent K (half saturation) [3]: 148 ± 9 nM

AUUAUUUAUUUAUUUA (ssRNA) [ARE-16]
apparent K (half saturation) [8]: 1000 ± 82 nM

AUUUAUUUAUUAUUUAUUUAUUUA (ssRNA) [ARE-24]
apparent K (half saturation) [9]: 265 ± 31 nM

UCUCACUUUAAAAAUAAAAAACAUGCUUAU (ssRNA) [Most freq fl (AAA flanks)]
apparent K (half saturation) [6]: 226 ± 1.6 nM

UCUCACUUUAAUAAUCAAAAUCAUGCUUAU (ssRNA) [P4AtoC]
apparent K (half saturation) [2]: 335 ± 38 nM

UCUCACUUUAAUAAUAGAAAUCAUGCUUAU (ssRNA) [LUPUS]
binding result [1]: no binding

UCUCACUUUAAUAAUGAAAAUCAUGCUUAU (ssRNA) [IPEX]
binding result [1]: no binding

UCUCACUUUAAUAAUAACAAUCAUGCUUAU (ssRNA) [P6AtoC]
apparent K (half saturation) [2]: 309 ± 26 nM

GUGAUUAUUUAUUAUUUAUUUAUUAUUUAUUUAUUUAG (ssRNA) [ARE-38]
apparent K (half saturation) [10]: 141 ± 5 nM

UCUCACUUUUCGAAUAAAUCGCAUGCUUAU (ssRNA) [Least freq fl (UCG flanks)]
apparent K (half saturation) [11]: 309 ± 25 nM

UCUCACUUUAAUAAUACAAAUCAUGCUUAU (ssRNA) [P5AtoC]
apparent K (half saturation) [7]: 278 ± 29 nM
